Earlier results, collected in article PMC12520553.
Like-named read-outs stand apart in the source and are kept apart here.

Experiments:
RAGE (Homo sapiens) [1] = target: RAGE (Homo sapiens) (UniProt Q15109)
sRAGE ECD (Homo sapiens) = sRAGE ECD (Homo sapiens) (UniProt Q15109); test: MST
S100B (Homo sapiens) [2] = target: S100B (Homo sapiens) (UniProt P04271); test: SPR
Aβ40 Aβ40 (Homo sapiens) [3] = target: Aβ40 Aβ40 (Homo sapiens) (UniProt P05067)
[4] = target: Aβ1-40 Aβ1-40 (Homo sapiens) (UniProt P05067)
Aβ42 Aβ42 (Homo sapiens) [5] = target: Aβ42 Aβ42 (Homo sapiens) (UniProt P05067)
S100A8 (Homo sapiens) = S100A8 (Homo sapiens) (UniProt P05109); test: SPR
Sequence of S100A8 (Homo sapiens) (P05109 whole entry): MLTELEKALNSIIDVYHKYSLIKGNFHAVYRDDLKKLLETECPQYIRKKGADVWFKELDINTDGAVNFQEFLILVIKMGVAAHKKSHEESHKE

S100A9 (Homo sapiens) = S100A9 (Homo sapiens) (UniProt P06702); test: SPR
Sequence of S100A9 (Homo sapiens) (P06702 whole entry): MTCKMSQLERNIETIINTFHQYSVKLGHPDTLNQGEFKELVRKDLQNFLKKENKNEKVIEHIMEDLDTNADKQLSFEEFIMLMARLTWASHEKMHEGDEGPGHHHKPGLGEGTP

[6] = target: fructose-BSA (Bos taurus) (UniProt P02769); test: SPR
Sequence of fructose-BSA (Bos taurus) (P02769 25-607): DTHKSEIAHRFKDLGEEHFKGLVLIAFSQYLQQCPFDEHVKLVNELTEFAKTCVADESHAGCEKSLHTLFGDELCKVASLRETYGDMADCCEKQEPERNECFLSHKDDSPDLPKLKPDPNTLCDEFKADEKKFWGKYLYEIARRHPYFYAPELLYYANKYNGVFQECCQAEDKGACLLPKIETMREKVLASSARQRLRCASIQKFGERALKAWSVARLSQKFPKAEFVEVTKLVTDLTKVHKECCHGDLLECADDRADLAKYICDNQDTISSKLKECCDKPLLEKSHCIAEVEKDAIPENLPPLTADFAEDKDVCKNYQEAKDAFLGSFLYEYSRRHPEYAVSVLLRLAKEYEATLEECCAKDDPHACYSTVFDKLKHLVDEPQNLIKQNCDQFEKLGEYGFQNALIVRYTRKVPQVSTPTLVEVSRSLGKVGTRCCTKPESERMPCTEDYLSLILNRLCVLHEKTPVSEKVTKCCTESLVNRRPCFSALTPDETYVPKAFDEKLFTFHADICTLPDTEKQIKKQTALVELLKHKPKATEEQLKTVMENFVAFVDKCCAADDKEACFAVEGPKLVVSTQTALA

glucose-BSA (Bos taurus) = glucose-BSA (Bos taurus) (UniProt P02769); test: SPR
Sequence of glucose-BSA (Bos taurus) (P02769 25-607): as above

S100A13 (Homo sapiens) = S100A13 (Homo sapiens) (UniProt Q99584); test: ITC
Sequence of S100A13 (Homo sapiens) (Q99584 whole entry): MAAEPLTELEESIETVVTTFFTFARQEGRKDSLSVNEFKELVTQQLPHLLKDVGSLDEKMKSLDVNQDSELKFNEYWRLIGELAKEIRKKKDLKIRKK

Aβ Aβ (Homo sapiens) = Aβ Aβ (Homo sapiens) (UniProt P05067)
Aβ40 Aβ40 (Homo sapiens) [7] = target: Aβ40 Aβ40 (Homo sapiens) (UniProt P05067); remark: listed apart in the source
S100A5 (Homo sapiens) = S100A5 (Homo sapiens) (UniProt P33763)
Sequence of S100A5 (Homo sapiens) (P33763 whole entry): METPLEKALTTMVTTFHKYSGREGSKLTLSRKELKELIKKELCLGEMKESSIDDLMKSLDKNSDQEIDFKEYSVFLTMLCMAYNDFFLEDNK

C1q (Homo sapiens) = C1q (Homo sapiens) (UniProt P02745); test: SPR
Sequence of C1q (Homo sapiens) (P02745 23-245, chain 1 of 3): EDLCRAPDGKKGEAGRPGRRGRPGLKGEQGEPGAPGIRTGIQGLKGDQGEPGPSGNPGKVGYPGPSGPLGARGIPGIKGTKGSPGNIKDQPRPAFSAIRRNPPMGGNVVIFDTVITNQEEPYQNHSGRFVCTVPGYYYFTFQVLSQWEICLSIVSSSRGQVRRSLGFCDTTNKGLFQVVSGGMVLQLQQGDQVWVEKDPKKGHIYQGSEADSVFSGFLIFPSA
Sequence of C1q (Homo sapiens) (P02746 28-253, chain 2 of 3, further chain): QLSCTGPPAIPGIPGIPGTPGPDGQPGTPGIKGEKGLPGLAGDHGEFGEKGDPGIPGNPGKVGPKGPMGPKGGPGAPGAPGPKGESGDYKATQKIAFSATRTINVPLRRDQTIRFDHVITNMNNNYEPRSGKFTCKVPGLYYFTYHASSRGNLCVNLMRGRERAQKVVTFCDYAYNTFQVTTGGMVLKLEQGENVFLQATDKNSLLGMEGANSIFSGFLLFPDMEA
Sequence of C1q (Homo sapiens) (P02747 29-245, chain 3 of 3, further chain): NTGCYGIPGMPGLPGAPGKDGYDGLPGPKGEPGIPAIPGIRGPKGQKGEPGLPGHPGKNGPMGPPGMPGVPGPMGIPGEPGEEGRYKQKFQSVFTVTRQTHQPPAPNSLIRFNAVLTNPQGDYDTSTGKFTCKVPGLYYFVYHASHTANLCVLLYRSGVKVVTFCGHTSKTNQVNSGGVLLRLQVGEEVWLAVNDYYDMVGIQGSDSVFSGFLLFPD

HMGB1 (Homo sapiens) = HMGB1 (Homo sapiens) (UniProt P09429); test: SPR
Sequence of HMGB1 (Homo sapiens) (P09429 whole entry): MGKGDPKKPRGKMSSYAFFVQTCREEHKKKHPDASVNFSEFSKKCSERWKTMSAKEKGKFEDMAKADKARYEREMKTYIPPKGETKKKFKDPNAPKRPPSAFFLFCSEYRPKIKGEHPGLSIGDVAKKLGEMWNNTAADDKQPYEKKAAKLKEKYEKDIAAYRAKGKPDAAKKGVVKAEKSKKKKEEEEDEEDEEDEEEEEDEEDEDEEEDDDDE

S100A6m (Homo sapiens) = S100A6m (Homo sapiens) (UniProt P06703); test: ITC
S100P (Homo sapiens) = S100P (Homo sapiens) (UniProt P25815); test: ITC
Sequence of S100P (Homo sapiens) (P25815 whole entry): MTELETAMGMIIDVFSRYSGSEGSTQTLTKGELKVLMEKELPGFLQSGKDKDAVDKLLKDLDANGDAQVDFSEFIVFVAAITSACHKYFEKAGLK

S100A11 (Homo sapiens) = S100A11 (Homo sapiens) (UniProt P31949); test: NMR
Sequence of S100A11 (Homo sapiens) (P31949 2-105): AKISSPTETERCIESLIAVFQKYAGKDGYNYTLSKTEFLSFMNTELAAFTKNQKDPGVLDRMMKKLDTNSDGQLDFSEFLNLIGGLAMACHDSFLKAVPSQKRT

Aβ42 Aβ42 (Homo sapiens) [8] = target: Aβ42 Aβ42 (Homo sapiens) (UniProt P05067); test: MST
Aβ40 Aβ40 (Homo sapiens) [9] = target: Aβ40 Aβ40 (Homo sapiens) (UniProt P05067); test: given as Ka
S100B (Homo sapiens) [10] = target: S100B (Homo sapiens) (UniProt P04271); test: ITC
[11] = target: RAGE V domain (Homo sapiens) (UniProt Q15109)
RAGE (Homo sapiens) [12] = target: RAGE (Homo sapiens) (UniProt Q15109); test: SPR
[13] = target: RAGE 23-132 (Homo sapiens) (UniProt Q15109)
[14] = target: S100B (dimer) (Homo sapiens) (UniProt P04271); test: SPR
Sequence of S100B (dimer) (Homo sapiens) (P04271 2-92): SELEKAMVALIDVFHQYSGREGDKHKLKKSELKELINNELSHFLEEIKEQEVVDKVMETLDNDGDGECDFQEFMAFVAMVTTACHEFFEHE

[15] = target: Aβ17-42 Aβ17-42 (Homo sapiens) (UniProt P05067); test: MST
[16] = target: iso-Aβ42 Aβ42 (Homo sapiens) (UniProt P05067); test: MST
[17] = target: pS8-Aβ42 Aβ42 (Homo sapiens) (UniProt P05067); test: MST

Sequence of S100B (Homo sapiens) (P04271 2-92): as above
Sequence of fructose-BSA (AGE) (P02769 25-607): as the sequence (P02769 25-607) above
Sequence of glucose-BSA (AGE) (P02769 25-607): as above
Sequence of S100A8 (P05109 whole entry): as the sequence (P05109 whole entry) above
Sequence of S100B (P04271 2-92): as the sequence (P04271 2-92) above
Sequence of S100A9 (P06702 whole entry): as the sequence (P06702 whole entry) above
Sequence of S100A5 (P33763 whole entry): as the sequence (P33763 whole entry) above

Substance: Amyloid-beta 1-40 Abeta 1-40 (from UniProt P05067)
- Kd (RAGE (Homo sapiens) [1]): 57 nM

Substance: Amyloid-beta 17-42 Abeta 17-42 (from UniProt P05067)
- Kd (sRAGE ECD (Homo sapiens)): 10000 nM

Substance: RAGE 23-132 (from UniProt Q15109)
- Kd (S100B (Homo sapiens) [2]): 500 nM

Substance: RAGE (from UniProt Q15109)
- Kd (Aβ40 Aβ40 (Homo sapiens) [3]): 75 nM
- Kd [4]: 57 nM
- Kd (Aβ42 Aβ42 (Homo sapiens) [5]): 92 nM
- Kd (S100A8 (Homo sapiens)): 70 nM
- Kd (S100A9 (Homo sapiens)): 3.21 nM
- Kd [6]: 19500 nM
- Kd (glucose-BSA (Bos taurus)): 13900 nM

Substance: RAGE C2 (from UniProt Q15109)
- Kd (S100A13 (Homo sapiens)): 1300 nM

Substance: RAGE V domain (from UniProt Q15109)
- Kd (Aβ Aβ (Homo sapiens)): 52.2 nM
- Kd (Aβ40 Aβ40 (Homo sapiens) [7]): 600 nM
- Kd (S100A5 (Homo sapiens)): 5900 nM
- Kd (C1q (Homo sapiens)): 5600 nM
- Kd (HMGB1 (Homo sapiens)): 97.7 nM
- Kd (S100A6m (Homo sapiens)): 3000 nM
- Kd (S100P (Homo sapiens)): 6200 nM
- Kd (S100A11 (Homo sapiens)): 2650 nM
- Kd (Aβ42 Aβ42 (Homo sapiens) [8]): 1000 nM
- Kd (Aβ40 Aβ40 (Homo sapiens) [9]): 625 nM

Substance: RAGE VC1 (from UniProt Q15109)
- Kd (S100B (Homo sapiens) [10]): 3190 nM

Substance: S100A5 (from UniProt P33763)
- Kd [11]: 5900 nM

Substance: S100A8 (from UniProt P05109)
- Kd (RAGE (Homo sapiens) [12]): 70 nM

Substance: S100A9 (from UniProt P06702)
- Kd (RAGE (Homo sapiens) [12]): 3.21 nM

Substance: S100B (from UniProt P04271)
- Kd [13]: 500 nM

Substance: fructose-BSA (AGE) (from UniProt P02769)
- Kd (RAGE (Homo sapiens) [12]): 19500 nM

Substance: glucose-BSA (AGE) (from UniProt P02769)
- Kd (RAGE (Homo sapiens) [12]): 13900 nM

Substance: sRAGE ECD (from UniProt Q15109)
- Kd [14]: 8300 nM
- Kd [15]: 10000 nM
- Kd [16]: 23000 nM
- Kd [17]: 7000 nM
